Assay results published in patent publication US20240209061A1, “FUSION PROTEINS AND USES THEREOF” (Pfizer Inc., priority 2020, published 2024).

Legend:
[1] = AC-SINS self-interaction assay; type: physicochemical
Procedure: Variant CD80-Fc fusion proteins were assessed by measuring non-specific binding using a DNA- and insulin-binding ELISA (Avery et al., MAbs. 2018 February/March; 10(2): 244-255) and for self-interaction in an AC-SINS assay (affinity-capture self-interaction nanoparticle spectroscopy; Liu et al., 2014, mAbs 6:483-92). DNA- and insulin-binding scores were calculated as the signal ratio of the ELISA signal of the CD80-Fc fusion protein at 10 μg/ml to the ELISA signal in the absence of the Fc-fusion protein (buffer only). For the AC-SINS assay, proteins are captured by anti-human Fc antibodies coated on gold nanoparticles. […] The score ranges obtained from these in vitro assays correlate well with in vivo clearance using huFcRn transgenic (Tg32) mouse. Therapeutic proteins with high scores are at high risk for rapid clearance and unfavorable PK and therapeutics that score low are at low risk and favorable PK.

[2] = Thermal stability by Differential Scanning calorimetry (DSC); type: physicochemical
Procedure: There is a correlation between the thermal stability of a protein with the overall stability of the protein. Enhanced thermal stability often provides improved manufacturability and longer shelf life/stability. Thermal stability of variant CD80-Fc fusion proteins was assessed by Differential Scanning calorimetry (DSC). Variant CD80-Fc fusion proteins were analyzed using a MicroCal VP-DSC instrument. […] Tables 8-10 show the first thermal transition temperature (Tm1) of CD80-Fc fusion proteins and the enhanced thermal stability of variant CD80-Fc fusion proteins compared to CD80-WT-Fc fusion proteins.

[3] = Pharmacokinetics in huFcRn transgenic mice; conditions: 0.1 mg/kg IV; for Cmax: average of 3 animals
Procedure: PK of CD80-Fc fusion proteins was also assessed in transgenic mice expressing the human neonatal Fc receptor (huFcRn) a-chain transgene under the control of its natural human promoter. Female mice were dosed intravenously with CD80-Fc fusion proteins at 0.1 mg/kg, and blood was collected at the timepoints indicated on the graph. Levels of CD80-Fc in mouse plasma were measured as described above.

[4] = Thermal forced aggregation (SEC); type: physicochemical; conditions: 24 hours, PBS
Procedure: To assess the aggregation propensity of variant CD80-Fc fusion proteins, 1 mg/ml of CD80-Fc fusion protein was incubated in PBS at increasing temperatures for 24 hours. The samples were analyzed by SEC on an Agilent 1100 (Agilent Technologies, Germany) HPLC system using a YMC-Pack Diol-200 (YMC, Germany) analytical size exclusion chromatography column and PBS supplemented to 400 mM NaCl as running buffer. % aggregation was calculated from the loss of intact peak area. […] ND=Not Determined.

[5] = Viscosity (Anton Paar rheometer); type: physicochemical; conditions: 20 mM histidine, 8.5% sucrose, pH 5.8
Procedure: The viscosity of CD80-Fc fusion proteins was assessed at various concentrations. Lower viscosity is desired for subcutaneous administration, and providing optimal syringeability and minimal pain to patients. Viscosity was measured using an Anton Paar rheometer and a CP-25 measuring system at 150 rpm. The sample comprised CD80-Fc fusion proteins in 20 mM histidine and 8.5% sucrose at pH 5.8.

[6] = test system: Renca murine renal carcinoma tumor cells; assay: Renca murine renal carcinoma model; type: in vivo, mouse; conditions: for % tumor growth inhibition: Day 18; for # IFNγ-producing spots (splenic tumor-reactive T cells): spleen Day 9, average of n = 4 mice; for CD8^+ T cell infiltrates (% CD45): Renca, ~1 week after first dose, n=4
Procedure: Renca murine renal carcinoma tumor cells (1 million) were subcutaneously implanted in the hind flank of female Balb/c mice. Five days after tumor implantation, PBS vehicle control or variant CD80-Fc fusion proteins were dosed intravenously at 0.3 and 1 mg/kg (on Day 0 and Day 3) or 3 mg/kg (Day 0, Day 3 and Day 6). Tumor volume was determined by caliper measurements obtained in 2 dimensions and calculated as width^2×length/2. Error bars are depicted as ±SEM.
Pharmacodynamic (PD) modulation with variant CD80-Fc fusion proteins was assessed by measuring tumor-reactive T cells in the spleen using IFNγ ELIspot. Single-cell suspensions were generated from dissociated spleens taken at Day 9 after the first dose of CD80-Fc. Splenocytes were incubated with irradiated tumor cells overnight at 37° C., and the number of IFNγ-producing spots were measured using the IFNγ ELIspot Kit (BD Biosciences #551083).
Cytotoxic CD8^+ T cells are responsible for killing cancer cells and the measurement of CD8^+ T cells that have infiltrated tumors commonly correlates with efficacy for immune-oncology therapies. For all in vivo studies, tumors were collected ˜1 week after the first dose and dissociated by mincing, followed by incubation in an enzymatic digestion cocktail and homogenization. The resulting cell suspension was filtered and washed, and single cells were stained with antibodies to CD45, CD8, and a viability dye to detect tumor-infiltrating lymphocytes (TILs) by flow cytometry. Data were acquired on a BD LSRFortessa flow cytometer or a Cytek Aurora spectral flow cytometer. Table 31 and FIG. 18 show the amount of tumor-infiltrating CD8+ T cells expressed as a percentage of total immune cells (CD45+). Each value is the average of n=4 mice per group. Treatment with all variant CD80-Fc fusion proteins led to increase in CD8+ TILs in various tumor models.

| Substance | DSC Tm1 ([2]; PBS) [°C] | AUC [3] [µg·h/mL] | CL [3] [mL/day/kg] | Vdss [3] [L/kg] | Cmax [3] [ng/mL] | % aggregation ([4]; Table 12, 40° C.) [%] | % aggregation ([4]; Table 12, 45.3° C.) [%] | % aggregation ([4]; Table 12, 49.4° C.) [%] | AC-SINS Score ([1]; Table 6) | Number of tumor-free mice ([6]; 0.3 mg/kg) | Day 18 tumor volume ([6]; 0.3 mg/kg IV, Day 0 and 3) [mm^3] | % tumor growth inhibition ([6]; 0.3 mg/kg) [%] | Number of tumor-free mice ([6]; 1 mg/kg) | Day 18 tumor volume ([6]; 1 mg/kg IV, Day 0 and 3) [mm^3] | % tumor growth inhibition ([6]; 1 mg/kg) [%] | Number of tumor-free mice ([6]; 3 mg/kg) | Day 18 tumor volume ([6]; 3 mg/kg IV, Day 0, 3 and 6) [mm^3] | % tumor growth inhibition ([6]; 3 mg/kg) [%] | # IFNγ-producing spots (splenic tumor-reactive T cells) ([6]; 3 mg/kg) | CD8^+ T cell infiltrates (% CD45) ([6]; 3 mg/kg) | also measured |
| --- | --- | --- | --- | --- | --- | --- | --- | --- | --- | --- | --- | --- | --- | --- | --- | --- | --- | --- | --- | --- | --- |
| CD80-K89D-D90K-T28V-T57V-Fc: non-cysteine stabilized variant CD80-Fc fusion protein (K89D, D90K, T28V, T57V) | 63.70 ± 0.07 | 147 | 14 | 0.082 | 2300 | 0.6 | 6.0 | 62.8 | – | – | – | – | – | – | – | – | – | – | – | – | AC-SINS Score ([1]; Table 7): −1; DSC Tm1 ([2]; Glu pH 4.5): 65.11 ± 0.23 °C; DSC Tm1 ([2]; His pH 5.8): 68.57 ± 0.74 °C; DSC Tm1 ([2]; Tris pH 7.5): 66.94 ± 1.6 °C; % aggregation ([4]; Table 12, 54.9° C.): 72.5%; Viscosity ([5]; 92.7 mg/ml): 12.1 cP; Viscosity ([5]; 119 mg/ml): 27.8 cP |
| CD80-D90Q-Fc: variant CD80 ECD (D90Q) fused to human IgG1 Fc | 59.83 ± 0.08 | – | – | – | – | – | – | – | 0 | 4/10 | 248.2 ± 126.1 | 81.4 | 4/10 | 157.6 ± 64.2 | 89.6 | 8/10 | 72.0 ± 41.6 | 97.1 | 334.75 | 24.2 | % aggregation ([4]; Table 11, 40° C.): 81.6%; % aggregation ([4]; Table 11, 45.3° C.): 89.5%; % aggregation ([4]; Table 11, 49.4° C.): 89.5% |
| CD80-K89Q-D90Q-Fc: variant CD80 ECD (K89Q, D90Q) fused to human IgG1 Fc | 59.67 ± 0.10 | – | – | – | – | – | – | – | 0 | 2/10 | 743.2 ± 159.5 | 37.4 | 3/10 | 192.6 ± 89.3 | 86.1 | 8/10 | 43.2 ± 21.8 | 99.8 | 152.17 | 36.7 | % aggregation ([4]; Table 11, 40° C.): 69.9%; % aggregation ([4]; Table 11, 45.3° C.): 77.7%; % aggregation ([4]; Table 11, 49.4° C.): 78.0%; Viscosity ([5]; 93.5 mg/ml): 32.8 cP; Viscosity ([5]; 120.6 mg/ml): 115.8 cP |
| CD80-WT-Fc: wild-type human CD80 extracellular domain fused to human IgG1 Fc (C220S) [reference compound] | 59.52 ± 0.07 | 97 | 20.2 | 0.087 | 2000 | 0.6 | 64.9 | 83.4 | 0 | 5/10 | 199.0 ± 114.0 | 85.6 | 5/10 | 79.6 ± 25.5 | 96.2 | 6/7 | 73.0 ± 69.0 | 93.7 | 288.5 | 38.6 | AC-SINS Score ([1]; Table 7): 0; DSC Tm1 ([2]; Glu pH 4.5): 62.78 ± 0.03 °C; DSC Tm1 ([2]; His pH 5.8): 63.40 ± 0.35 °C; DSC Tm1 ([2]; Tris pH 7.5): 64.77 ± 0.14 °C; # IFNγ-producing spots (splenic tumor-reactive T cells) ([6]; 0.3 mg/kg): 373.67; # IFNγ-producing spots (splenic tumor-reactive T cells) ([6]; 1 mg/kg): 271.08; T1/2 [3]: 80 h; % aggregation ([4]; Table 11, 40° C.): 18.0%; % aggregation ([4]; Table 11, 45.3° C.): 45.4%; % aggregation ([4]; Table 11, 49.4° C.): 50.8%; Viscosity ([5]; 101.65 mg/ml): 35.7 cP; Viscosity ([5]; 132.25 mg/ml): 158.8 cP |
| CD80-K89Q-D90Q-E23C-A26C-Fc: disulfide stabilized variant CD80-Fc fusion protein (K89Q, D90Q, E23C, A26C) | 67.28 ± 0.2 | 182 | 8.6 | 0.109 | 2200 | 0.6 | 2.9 | 0.5 | −1 | – | – | – | – | – | – | – | – | – | – | – | T1/2 [3]: 211 h; % aggregation ([4]; Table 11, 54.9° C.): 3.2%; % aggregation ([4]; Table 11, 59.1° C.): 22.8%; % aggregation ([4]; Table 11, 64° C.): 36.2%; % aggregation ([4]; Table 12, 54.9° C.): 6.7%; % aggregation ([4]; Table 12, 59.1° C.): 55.9%; % aggregation ([4]; Table 12, 64° C.): 68.8%; Viscosity ([5]; 107.0 mg/ml): 9.878 cP; Viscosity ([5]; 148.0 mg/ml): 30.16 cP |
